Laboratory results as given in article PMC10178127, “Immunomodulatory Effects of the Pea Defensin Psd1 in the Caco-2/Immune Cells Co-Culture upon Candida albicans Infection” (International Journal of Molecular Sciences, 2023).

Columns and labels:
[1] = tested on: Caco-2 polarized monolayer; assay type: in vitro ADME, human
Procedure: For growing cells, mimicking epithelial barriers in vitro, Caco-2 cells were seeded onto 24-well polycarbonate Millicell cell culture inserts (0.4 μm, 0.6 cm^2 surface area) (Millipore, Burlington, MA, USA), precoated with 0.2% bovine gelatin (Sigma-Aldrich), at a density of 2.5 × 10^5 cells/cm^2. The cells were grown for 21 days in a complete DMEM/F12 (1:1) medium with re-feeding every 2–3 days with a fresh complete medium. The integrity of the Caco-2 cell monolayer was checked by measuring the transepithelial electrical resistance (TEER) using a Millicell-ERS Voltohmmeter (Millipore). Only cell monolayers with TEER > 400 Ωcm^2 (after subtracting TEER in blank inserts without Caco-2 cells) were used in transport across epithelial monolayer and cytokine production experiments.
The recombinant Psd1 was labeled with fluorescein isothiocyanate isomer I (FITC) (Sigma-Aldrich). For this, 0.5 mg of Psd1 was reconstituted in 20 µL of DMSO, then added to 100 µL of the buffer for coupling (0.1 M sodium carbonate, 0.1 M sodium bicarbonate, pH 10.8) and 3.7 mg of FITC in 100 µL of DMSO. The coupling reaction was conducted for 2 h at room temperature in the dark. In order to purify FITC-Psd1, the reaction mixture was loaded onto the PD10 gel-filtration column (GE Healthcare, Chicago, IL, USA) previously equilibrated with transport buffer (Hank’s balanced salt solution, containing 1 mM MgCl2, 1 mM CaCl2, and 10 mM D(+)glucose, pH 7.4).
Transport of FITC-Psd1 across the Caco-2 epithelial barrier in vitro was performed in the transport buffer. Bidirectional “apical-to-basolateral” (A→B) and “basolateral-to-apical” (B→A) transport of FITC-Psd1 in the transport buffer across epithelial barrier was investigated. The “apical-to-basolateral” assay was initiated by adding 0.4 mL of 2 µM FITC-Psd1 to the apical (luminal) side of the monolayer and 0.7 mL of the transport buffer (pH 7.4) to the basolateral side of the monolayer. The “basolateral-to-apical” assay was performed in a similar manner, except that 0.4 mL of the transport buffer (pH 7.4) was added to the apical side and 0.7 mL of 2 µM FITC-Psd1 to the basolateral (serosal) side. All solutions were pre-warmed to 37 °C before taking into the transport experiment. Transport in vitro across Caco-2 barriers was conducted for 90 min in 4 independent inserts for each studied transport variant.
An apparent permeability coefficient (Papp) was calculated for each insert according to the following equation:Papp = (V/(A × Ci)) × ΔC/Δt,(1) where V is the volume of the acceptor chamber, A is the area of the membrane insert, Ci is the initial concentration of Psd1, and ΔC/Δt is the solute flux across the barrier. Uptake ratio:UR = Papp(A→B)/Papp(B→A),(2) and efflux ratio:ER = Papp(B→A)/Papp(A→B),(3) for Psd1 were calculated from averaged apparent permeability coefficients measured in 4 independent inserts. Monolayer integrity was checked by measuring TEER before and after the end of the experiment.

[2] = tested on: polarized Caco-2 monolayer; experiment: Real-time PCR of HBD-2, IL-1β, IL-8/CXCL8 genes in Caco-2 cells; assay type: cell-based, human
Procedure: Caco-2 cells were seeded into the wells of 24-well plates in the complete RPMI-1640 medium containing 10% FBS and 1X antibiotic-antimycotic solution and kept in a humidified CO2-incubator (5% CO2, 37 °C). Cells were grown for 18 days and the medium was changed twice a week. The presence of a cell monolayer was checked using an inverted microscope and the plates were incubated one more week for complete polarization of Caco-2 cells. Caco-2 cells were stimulated by adding fresh complete RPMI-1640 medium without antibiotics, containing Psd1 at the final concentration of 2 µM or Candida albicans at the concentration of 5 × 10^4 cells/mL (1.3 × 10^4 cells per cm^2 of Caco-2 monolayer) or yeast cells together with the pea defensin at the same concentration. RPMI-1640 medium only was used in control wells.
Total RNA was isolated from Caco-2 cells using TRIzol reagent (Invitrogen) according to the manufacturer’s instructions after 4 or 24 h of stimulation and cell washing by RPMI-1640 medium. The quality and quantity of total RNA were determined by the A260/280 ratio using NanoPhotometer NP80 (Implen GmbH, München, Germany) as well as agarose gel electrophoresis (Supporting Materials, Figure S3). RNase inhibitor (Evrogen, Moscow, Russia) was added to the final preparation of total RNA. Two μg of total RNA was taken to synthesize the cDNA using MINT-Universal cDNA synthesis kit (Evrogen, Moscow, Russia) containing MMLV-based reverse transcriptase following the manufacturer’s instructions.
Real-time PCR was performed on CFX Opus 96 Real-Time PCR System (Bio-Rad, Hercules, CA, USA) using the SYBR Green PCR kit (Evrogen, Moscow, Russia) and target-specific primers (Supporting Materials, Table S4). The internal control housekeeping gene GAPDH was amplified simultaneously in separate reaction tubes [36]. The reaction conditions were set as follows: initial heating at 95 °C for 3 min, followed by 50 cycles of reactions at 95 °C (15 s), followed by 62 °C (20 s), and finally 72 °C (30 s). Melt curves were obtained using a temperature increment from 50 to 95 °C at 0.5 °C/5 s (Supporting Materials, Figure S4). The threshold cycle number (CT) of reactions was determined using the CFX Maestro 2.2 (version 5.2.008.0222) software (Bio-Rad, Hercules, CA, USA). The efficiency of PCR was monitored by using LinRegPCR online tool (https://www.gear-genomics.com/rdml-tools/). The relative expression of the genes of interest was calculated by normalization to GAPDH using the standard 2^−ΔΔCT method. Unstimulated Caco-2 cells after 4 and 24 h of incubation were used as controls. Experiments were performed twice in six technical replications. Gene expression in controls and experimental samples was compared with a t-test using GraphPad Prism v.8.0.1. The p-values ≤ 0.05 were considered significant.

Psd1: pea defensin from Pisum sativum (UNIPROT P81929), recombinant peptide overexpressed in Escherichia coli (KTCEHLADTYRGVCFTNASCDDHCKNKAHLISGTCHNWKCFCTQNC; UniProt P81929 1-46, looked up)
efflux ratio (ER) ([1]; Caco-2): 2.29 | uptake ratio (UR) ([1]; Caco-2): 0.44 | Apparent permeability A→B coefficients (Papp), range of four inserts ([1]; Caco-2, pH 7.4): 2.63–3.71 × 10^−6 cm/s | Papp A→B ([1]; Caco-2, pH 7.4): 3.04 ± 0.24 × 10^−6 cm/s | Papp B→A ([1]; Caco-2, pH 7.4): 6.96 ± 0.22 × 10^−6 cm/s | expression of HBD-2, IL-1β and IL-8/CXCL8 genes ([2]; 2 μM Psd1, 24 h): Immunostimulatory action of Psd1 was observable | expression of HBD-2, IL-1β and IL-8/CXCL8 genes ([2]; 2 μM Psd1 alone, 4 h, relative to untreated Caco-2): upregulated all three genes | expression of HBD-2, IL-1β and IL-8/CXCL8 genes ([2]; 2 μM Psd1 with C. albicans vs C. albicans alone, 24 h, p < 0.05): significantly reduced the inhibitory effect of pathogenic fungus | expression of HBD-2, IL-1β and IL-8/CXCL8 genes ([2]; 2 μM Psd1 with C. albicans, 4 h): more pronounced activation of the protective immune response
